Measurements as given in the supplement of paper PMC9732359.
± gives the uncertainty stated by the source.

Experiment: protein stability index of a GFP-peptide fusion (yeast GPS) (PSI 1-4); higher = more stable; sorted into four equal gates, so the index is relative within each strain
Method in brief: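 Tiled yeast protein peptides of 17 residues were each joined downstream of GFP, on plasmids that also express Cherry. The pooled library was maintained in yeast, and mid-log cultures in leucine-free medium were sorted into four equal gates on the GFP/Cherry ratio. Plasmids from every gate were amplified by PCR and sequenced on Illumina, with barcodes linking reads to strains. The protein stability index of a peptide is its gate-number-weighted read frequency summed over the gates.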

NSPSSALRALQENGTIF [YDL088C/ASM4]
protein stability index (doa10∆): 2.13 ± 0.062
protein stability index (pdr5∆): 2.05 ± 0.053
protein stability index (san1∆): 1.53 ± 0.069
protein stability index (ubr1∆): 2.01 ± 0.039

LIHPENFTCNRKILNFK [SWI1]
protein stability index (doa10∆): 2.17 ± 0.069
protein stability index (pdr5∆): 2.49 ± 0.064
protein stability index (san1∆): 2.37 ± 0.064
protein stability index (ubr1∆): 2.88 ± 0.075

IPKLKPAPINSLSRDFV [SNU114]
protein stability index (doa10∆): 2.92 ± 0.052
protein stability index (pdr5∆): 2.8 ± 0.061
protein stability index (san1∆): 2.68 ± 0.039
protein stability index (ubr1∆): 2.75 ± 0.047

NETKKRNFLETVELQVG [RPL1A]
protein stability index (doa10∆): 2.96 ± 0.24
protein stability index (pdr5∆): 2.72 ± 0.23

GRLRNKSHKQTIVTGGG [RPP1]
protein stability index (doa10∆): 2.57 ± 0.093
protein stability index (pdr5∆): 2.89 ± 0.081
protein stability index (san1∆): 2.56 ± 0.073
protein stability index (ubr1∆): 2.92 ± 0.074

MSGGKGGKAGSAAKASQ [HTA1]
protein stability index (doa10∆): 3.18 ± 0.1
protein stability index (pdr5∆): 3.13 ± 0.1
protein stability index (san1∆): 2.83 ± 0.1
protein stability index (ubr1∆): 3.24 ± 0.07

KLKLLRMERIKDHLLLE [RPT2]
protein stability index (doa10∆): 2.27 ± 0.079
protein stability index (pdr5∆): 2.05 ± 0.064
protein stability index (san1∆): 2.12 ± 0.092
protein stability index (ubr1∆): 1.86 ± 0.054

APVETKKKRFEIKKWTA [HRT1]
protein stability index (doa10∆): 3.15 ± 0.094
protein stability index (pdr5∆): 3.48 ± 0.13
protein stability index (san1∆): 2.93 ± 0.12
protein stability index (ubr1∆): 3.27 ± 0.09

QDDADPMVSVMKMDKSP [RPT2]
protein stability index (doa10∆): 1.16 ± 0.065
protein stability index (pdr5∆): 1.27 ± 0.079
protein stability index (san1∆): 1.29 ± 0.26
protein stability index (ubr1∆): 1.52 ± 0.073

LKIIHDTFRWVGKKSAP [RPO31]
protein stability index (doa10∆): 2.51 ± 0.15
protein stability index (pdr5∆): 2.43 ± 0.21
protein stability index (san1∆): 2.35 ± 0.2
protein stability index (ubr1∆): 3.14 ± 0.11

EAEIECFDSTTGRDAGF [RRP40]
protein stability index (doa10∆): 3.15 ± 0.17
protein stability index (pdr5∆): 3.12 ± 0.17
protein stability index (san1∆): 3.28 ± 0.095
protein stability index (ubr1∆): 3.2 ± 0.12

DDIFIPQNMLFEGCYYT [RPC25]
protein stability index (doa10∆): 2.51 ± 0.17
protein stability index (pdr5∆): 2.89 ± 0.23
protein stability index (san1∆): 2.43 ± 0.12
protein stability index (ubr1∆): 2.76 ± 0.12

VRYGSSLRRQVKKLEIQ [RPL43A]
protein stability index (san1∆): 2.55 ± 0.2

QVPDSLDDQIFVCEKSI [RPN6]
protein stability index (doa10∆): 3.01 ± 0.2
protein stability index (pdr5∆): 3.19 ± 0.1
protein stability index (san1∆): 2.95 ± 0.084
protein stability index (ubr1∆): 2.92 ± 0.13

APEQQVQQFAQLPVGFK [UBP6]
protein stability index (doa10∆): 2.92 ± 0.08
protein stability index (pdr5∆): 2.99 ± 0.052
protein stability index (san1∆): 3.09 ± 0.059
protein stability index (ubr1∆): 2.99 ± 0.037

ANVNASAMPAPYMPYYY [DSN1]
protein stability index (doa10∆): 2.76 ± 0.06
protein stability index (pdr5∆): 2.88 ± 0.077
protein stability index (san1∆): 2.79 ± 0.059
protein stability index (ubr1∆): 2.65 ± 0.055

LPYAIAGSGSTFIYGYC [PRE3]
protein stability index (doa10∆): 2.13 ± 0.14
protein stability index (pdr5∆): 1.42 ± 0.084
protein stability index (san1∆): 2.26 ± 0.12
protein stability index (ubr1∆): 2.29 ± 0.085

YIEASGREGIWSKTIKA [RPC34]
protein stability index (doa10∆): 1.78 ± 0.1
protein stability index (pdr5∆): 2.07 ± 0.16
protein stability index (san1∆): 2.3 ± 0.17
protein stability index (ubr1∆): 2.42 ± 0.1

LANFVAKGFYHTPMVNF [SRB8]
protein stability index (doa10∆): 2.57 ± 0.059
protein stability index (pdr5∆): 2.27 ± 0.044
protein stability index (san1∆): 1.92 ± 0.082
protein stability index (ubr1∆): 2.32 ± 0.048

QDLPKINDKRANLMLVM [SRB4]
protein stability index (doa10∆): 1.91 ± 0.073
protein stability index (pdr5∆): 1.88 ± 0.068
protein stability index (san1∆): 1.83 ± 0.14
protein stability index (ubr1∆): 1.73 ± 0.063

FTKPPANETDKRPTPPS [YOR098C/NUP1]
protein stability index (doa10∆): 3.03 ± 0.043
protein stability index (pdr5∆): 3.05 ± 0.048
protein stability index (san1∆): 3.14 ± 0.039
protein stability index (ubr1∆): 3.15 ± 0.037

SPVTGDNSPSEDFMDIP [SNF2]
protein stability index (doa10∆): 3.21 ± 0.12
protein stability index (pdr5∆): 3.25 ± 0.1
protein stability index (san1∆): 2.81 ± 0.17
protein stability index (ubr1∆): 3.42 ± 0.058

GIQEVVHNTNSFIISSL [NUT1]
protein stability index (doa10∆): 2.12 ± 0.074
protein stability index (pdr5∆): 2.46 ± 0.059
protein stability index (san1∆): 2.04 ± 0.087
protein stability index (ubr1∆): 2.54 ± 0.066

PSKGQSLSKISQAFDIV [RPP1]
protein stability index (doa10∆): 3.25 ± 0.095
protein stability index (pdr5∆): 3.19 ± 0.085
protein stability index (san1∆): 2.96 ± 0.11
protein stability index (ubr1∆): 3.2 ± 0.085

VVEDKPLLSKKERLVRD [SMB1]
protein stability index (doa10∆): 1.14 ± 0.063
protein stability index (pdr5∆): 1.2 ± 0.043
protein stability index (san1∆): 1.21 ± 0.13
protein stability index (ubr1∆): 1.49 ± 0.056

SQTQLENANAANNGAAF [MED2]
protein stability index (doa10∆): 2.71 ± 0.054
protein stability index (pdr5∆): 2.75 ± 0.051
protein stability index (san1∆): 2.85 ± 0.053
protein stability index (ubr1∆): 1.74 ± 0.032

REISNFSKGDADVLVDR [SRP72]
protein stability index (doa10∆): 3.22 ± 0.098
protein stability index (pdr5∆): 3.19 ± 0.096
protein stability index (san1∆): 3.03 ± 0.097
protein stability index (ubr1∆): 3.06 ± 0.079
